Assay [1] has as its target biotinylated maltose-binding protein (MBP) [MBP: P0AEX9]. Put plainly: SPR.
Assay [2] has as its target CD44 trans-membrane domain (TMD) fused to maltose-binding protein [MBP: P0AEX9]. Put plainly: single-molecule force spectroscopy.

The text below walks through data of publication PMC4316159.

pKd: −log10 of the molar value.

What is called pKd is the Kd on a negative log10 scale, so that one unit is a factor of ten. High values mean a low Kd, low ones a high Kd. The term koff denotes the first-order rate constant of dissociation. High values mean fast dissociation, low ones slow dissociation. For orientation: kon means the second-order rate constant of association. Low values mean slow association, high ones fast association.

As for monobody YS1(E47A) (designed binder), in assay [1], the pKd is 7.00, the dissociation rate constant (koff) was 0.0387 s⁻¹ and the kon is 360000 M⁻¹ s⁻¹. In assay [2], this substance had a decrease of rupture force against YS1 of 10 to 15 pN and an unstressed off-rate k0off (Bell model) of 0.00076 s⁻¹.
